Data published in patent US6174679.

Target: T1, CIF150/hTAFII150 (Homo sapiens) (UniProt Q6P1X5)
T1 sequence: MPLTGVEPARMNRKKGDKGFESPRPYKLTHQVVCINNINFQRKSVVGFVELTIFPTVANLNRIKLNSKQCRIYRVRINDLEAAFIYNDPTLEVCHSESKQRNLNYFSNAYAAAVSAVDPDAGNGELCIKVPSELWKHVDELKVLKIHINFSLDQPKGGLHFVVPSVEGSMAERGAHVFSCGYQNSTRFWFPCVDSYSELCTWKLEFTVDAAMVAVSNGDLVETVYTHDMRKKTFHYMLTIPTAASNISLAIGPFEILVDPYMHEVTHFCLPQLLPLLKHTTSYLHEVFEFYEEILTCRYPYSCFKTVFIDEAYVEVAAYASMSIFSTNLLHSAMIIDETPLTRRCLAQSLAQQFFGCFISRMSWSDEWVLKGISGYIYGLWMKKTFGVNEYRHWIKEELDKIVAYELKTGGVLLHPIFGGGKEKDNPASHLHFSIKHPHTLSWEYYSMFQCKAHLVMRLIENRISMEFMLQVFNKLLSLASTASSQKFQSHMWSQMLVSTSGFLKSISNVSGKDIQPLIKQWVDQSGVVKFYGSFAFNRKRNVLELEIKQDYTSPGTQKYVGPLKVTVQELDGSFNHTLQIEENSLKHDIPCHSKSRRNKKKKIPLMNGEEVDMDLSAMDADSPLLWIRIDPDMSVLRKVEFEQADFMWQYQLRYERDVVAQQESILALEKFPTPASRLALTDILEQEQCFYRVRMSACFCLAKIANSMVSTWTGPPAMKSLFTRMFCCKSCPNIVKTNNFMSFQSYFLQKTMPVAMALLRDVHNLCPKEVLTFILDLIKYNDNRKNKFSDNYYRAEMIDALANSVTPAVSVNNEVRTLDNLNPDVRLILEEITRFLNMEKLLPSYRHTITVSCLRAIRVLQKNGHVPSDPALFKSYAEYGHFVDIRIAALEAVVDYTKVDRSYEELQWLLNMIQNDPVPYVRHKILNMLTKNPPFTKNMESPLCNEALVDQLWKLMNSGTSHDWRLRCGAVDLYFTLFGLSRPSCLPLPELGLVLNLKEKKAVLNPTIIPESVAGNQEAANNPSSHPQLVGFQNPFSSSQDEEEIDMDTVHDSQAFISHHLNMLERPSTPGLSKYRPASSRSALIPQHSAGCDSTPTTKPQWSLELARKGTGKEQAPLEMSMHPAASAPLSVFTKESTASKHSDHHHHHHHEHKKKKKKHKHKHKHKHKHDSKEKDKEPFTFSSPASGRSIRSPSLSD
Test: EMSA
Conditions: affinity improvement after selection (text gives both three and four rounds); dGdC competitor; supershifted by anti-CIF150 serum

## GAG (double strand) [selected CBE fragments with GAG core]
  binding signal: 5 fold
